Consider two molecules from US20260055150A1 (REGENTS OF THE UNIVERSITY OF MICHIGAN, published 2026).

Where no end group is shown, it is not given here.

The target in assay [1] is T1, epidermal growth factor receptor (EGFR) on patient-derived organoid cells (human, UniProt P00533 25-1210).
T1 construct: whole, on cells
Briefly: in vivo wide-field fluorescence endoscopy of PDO implanted in mouse colon, peptide given intravenously.
Procedure: Cultures were harvested from Matrigel in cold DPBS, triturated 30× with a 1 mL pipette tip, and centrifuged at 300 g for 3 min at 4° C. […] The colonoid fragments were further dissociated by 20× pipetting with a 1 mL pipette tip. […] Slow centrifugation at 100 g was performed to reduce the single cell content. The cell aggregates were resuspended in cold DPBS supplemented with 5% Matrigel and 10 µM Y27632. 1.8×10⁶ cell aggregates in 200 μL were transplanted per mouse as described previously. The implants were monitored over time using a rigid wide-field endoscope and a flexible fiber-coupled endomicroscope to localize the PDO and visualize EGFR expression with sub-cellular resolution.
Organoids grown in vitro (FIG. 17A) were implanted on day 7 post-DSS treatment. For implantation, in vitro grown PDOs were disrupted into smaller aggregates in 200 μL volume and were implanted intrarectally in anesthetized mice. The rectum was closed immediately using tissue glue. After several weeks to establish viability, the implanted PDOs were imaged using a rigid wide-field endoscope. The fluorescently-labeled peptide QRH*-Cy5 was administered intravenously at a dose of 300 μM in 200 μL of PBS.

Assay [2] concerns the target T2, claudin-1 on colonic patient-derived organoid cells (human, UniProt O95832 1-211).
T2 construct: whole, on cells; also called CLN1
T2 sequence (looked up): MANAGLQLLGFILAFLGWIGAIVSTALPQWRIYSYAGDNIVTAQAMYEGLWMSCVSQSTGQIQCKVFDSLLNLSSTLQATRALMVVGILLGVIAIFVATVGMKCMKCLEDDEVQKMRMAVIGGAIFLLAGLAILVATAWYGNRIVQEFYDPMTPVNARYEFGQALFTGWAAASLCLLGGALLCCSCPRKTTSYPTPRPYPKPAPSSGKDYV
Briefly: ex vivo immunofluorescence staining of resected tissue.
Source text: After completion of in vivo imaging, the results were validated using IF.

For the molecule QRHKPRE (also: Cy5 label, attachment not given here, also called Cy5QRH*-Cy5) [QRH*-Cy5 (QRHKPRE labeled with Cy5)], in assay [1], the binding result is listed as “binds”.

B1: RTS*-Cy5.5 (Cy5.5-labeled peptide RTSPSSR) (peptide)
peptide: RTSPSSR
modifications: also: Cy5.5 label, attachment not given here
notes: also called peptide specific for claudin-1
For the molecule B1, in assay [2], the binding result is “binds”.
